Reference: article PMC12501149 (Proceedings of the National Academy of Sciences of the …, 2025)
Substitutions are numbered along the chain they refer to.

What was measured:
[1] = biological target: TcdB 1285-1804 with C-terminal Avitag (RBD toxin fragment) (C. difficile, UniProt P18177 1285-1804); assay: SPR; details: both partners purified
biotinylated RBD of TcsL [2] = biological target: T1, biotinylated RBD of TcsL (Paeniclostridium sordellii, UniProt Q46342 1-2364); assay: SPR; details: both partners purified
biotinylated RBD of TcsL [3] = biological target: T1, biotinylated RBD of TcsL; assay: SPR; details: both partners purified; remark: listed apart in the source
full length TcdB = full length TcdB (C. difficile, UniProt P18177 1-2366); assay: SPR; details: both partners purified
TcdB2 (TcdB 027) = TcdB2 (TcdB 027) (C. difficile); assay: cell-based or functional assay
biotinylated RBD of TcsL [4] = biological target: T1, biotinylated RBD of TcsL; assay: SPR; details: both partners purified; remark: listed apart in the source

Chain of TcdB 1285-1804 with C-terminal Avitag (RBD toxin fragment) (P18177 1285-1804): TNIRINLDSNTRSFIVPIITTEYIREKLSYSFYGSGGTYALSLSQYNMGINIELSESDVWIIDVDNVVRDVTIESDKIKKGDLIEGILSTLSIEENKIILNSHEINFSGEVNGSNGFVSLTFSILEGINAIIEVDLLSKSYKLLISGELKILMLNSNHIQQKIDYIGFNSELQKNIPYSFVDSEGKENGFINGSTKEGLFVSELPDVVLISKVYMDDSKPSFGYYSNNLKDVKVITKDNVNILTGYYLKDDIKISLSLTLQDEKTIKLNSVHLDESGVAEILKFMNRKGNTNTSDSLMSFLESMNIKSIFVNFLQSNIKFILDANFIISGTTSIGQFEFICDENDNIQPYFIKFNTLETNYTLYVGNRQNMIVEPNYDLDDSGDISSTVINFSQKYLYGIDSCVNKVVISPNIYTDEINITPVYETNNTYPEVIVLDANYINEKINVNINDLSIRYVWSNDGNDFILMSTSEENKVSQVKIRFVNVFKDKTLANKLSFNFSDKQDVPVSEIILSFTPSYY
T1 sequence (Q46342 whole entry): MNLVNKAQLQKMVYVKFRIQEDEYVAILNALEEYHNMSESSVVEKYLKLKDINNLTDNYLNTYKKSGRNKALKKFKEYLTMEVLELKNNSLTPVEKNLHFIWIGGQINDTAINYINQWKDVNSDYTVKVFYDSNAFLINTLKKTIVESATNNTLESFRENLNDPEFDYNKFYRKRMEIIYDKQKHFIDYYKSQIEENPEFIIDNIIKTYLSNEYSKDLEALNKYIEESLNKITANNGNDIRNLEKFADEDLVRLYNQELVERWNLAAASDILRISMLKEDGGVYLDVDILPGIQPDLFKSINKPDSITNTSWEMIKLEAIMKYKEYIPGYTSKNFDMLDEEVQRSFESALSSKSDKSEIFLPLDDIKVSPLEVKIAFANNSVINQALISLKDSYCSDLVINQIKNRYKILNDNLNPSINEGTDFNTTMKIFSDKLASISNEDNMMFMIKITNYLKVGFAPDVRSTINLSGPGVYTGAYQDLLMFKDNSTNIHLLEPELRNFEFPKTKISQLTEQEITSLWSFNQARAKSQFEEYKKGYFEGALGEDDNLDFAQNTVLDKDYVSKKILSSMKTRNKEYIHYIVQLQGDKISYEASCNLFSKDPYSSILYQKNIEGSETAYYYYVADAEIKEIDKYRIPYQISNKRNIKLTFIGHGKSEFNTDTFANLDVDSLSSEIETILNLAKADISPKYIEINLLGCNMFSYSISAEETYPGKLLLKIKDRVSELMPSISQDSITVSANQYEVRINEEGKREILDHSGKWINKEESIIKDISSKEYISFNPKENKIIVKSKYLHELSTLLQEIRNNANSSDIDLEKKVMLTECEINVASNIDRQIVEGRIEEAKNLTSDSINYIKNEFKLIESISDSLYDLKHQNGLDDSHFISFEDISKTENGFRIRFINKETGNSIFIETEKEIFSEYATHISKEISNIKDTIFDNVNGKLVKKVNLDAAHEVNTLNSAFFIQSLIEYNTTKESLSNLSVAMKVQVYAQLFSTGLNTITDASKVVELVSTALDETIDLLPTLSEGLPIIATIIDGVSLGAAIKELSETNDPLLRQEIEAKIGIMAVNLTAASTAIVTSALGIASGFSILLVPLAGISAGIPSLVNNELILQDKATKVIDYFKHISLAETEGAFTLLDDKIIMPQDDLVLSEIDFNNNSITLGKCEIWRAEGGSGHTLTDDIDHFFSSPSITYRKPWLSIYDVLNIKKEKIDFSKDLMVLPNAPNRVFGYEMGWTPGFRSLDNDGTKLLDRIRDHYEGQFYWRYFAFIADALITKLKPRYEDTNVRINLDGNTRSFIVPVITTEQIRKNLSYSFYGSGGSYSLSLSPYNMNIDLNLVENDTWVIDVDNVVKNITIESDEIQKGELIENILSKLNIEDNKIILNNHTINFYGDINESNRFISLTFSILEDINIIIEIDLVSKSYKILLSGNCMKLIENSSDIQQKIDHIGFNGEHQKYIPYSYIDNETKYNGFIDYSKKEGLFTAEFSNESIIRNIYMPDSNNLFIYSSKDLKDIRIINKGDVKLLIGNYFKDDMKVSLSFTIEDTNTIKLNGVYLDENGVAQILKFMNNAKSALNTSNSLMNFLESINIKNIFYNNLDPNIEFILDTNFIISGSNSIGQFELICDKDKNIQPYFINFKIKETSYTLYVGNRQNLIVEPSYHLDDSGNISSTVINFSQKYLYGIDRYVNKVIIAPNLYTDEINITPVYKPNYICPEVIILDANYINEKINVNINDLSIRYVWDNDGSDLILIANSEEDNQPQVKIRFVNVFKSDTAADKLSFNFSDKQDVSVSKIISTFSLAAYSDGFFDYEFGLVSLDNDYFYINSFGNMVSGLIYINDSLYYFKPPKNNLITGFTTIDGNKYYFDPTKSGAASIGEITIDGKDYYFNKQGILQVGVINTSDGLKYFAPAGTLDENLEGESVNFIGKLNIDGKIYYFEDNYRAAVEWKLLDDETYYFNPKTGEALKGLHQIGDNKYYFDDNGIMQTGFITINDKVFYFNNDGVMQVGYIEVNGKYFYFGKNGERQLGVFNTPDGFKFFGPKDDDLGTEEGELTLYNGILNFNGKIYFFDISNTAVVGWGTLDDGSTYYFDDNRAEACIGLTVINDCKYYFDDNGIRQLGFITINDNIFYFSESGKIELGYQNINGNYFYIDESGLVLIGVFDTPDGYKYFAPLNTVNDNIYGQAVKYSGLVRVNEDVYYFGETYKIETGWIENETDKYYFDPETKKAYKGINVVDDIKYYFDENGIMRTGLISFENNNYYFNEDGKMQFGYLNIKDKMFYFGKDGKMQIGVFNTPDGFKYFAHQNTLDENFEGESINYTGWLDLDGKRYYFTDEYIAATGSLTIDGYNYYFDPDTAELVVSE

B1: fzd24 (designed binder)
chain: GEKSKLELLCKMLLTKAKLTGKQKYKNDLKELIEYLNEKGYPDLAKEASAKLEEI
Work on B1 yielded a Kd [1] of 15.3 pM, a koff [1] of 0.000649 s⁻¹ and a kon [1] of 4.24e+07 M⁻¹ s⁻¹.

B2: fzd48 (designed binder)
chain: KEELEKMIEELKKLIENGDKENFIKLFDEAFKKAKESRDPRTIASVWTLVLEFKNKN
B2 was tested, and the Kd [1] was 0.00975 pM, the koff [1] was 3.33e-07 s⁻¹ and the kon [1] was 3.42e+07 M⁻¹ s⁻¹.

B3: F4 (designed binder)
chain: NEELIKEIKKLLKEGKPASEILELLKKAGKEEIAKEAEKAALSSYDMTKAAAEEAIKKLK
Binder B3 has a Kd (biotinylated RBD of TcsL [2]) of 4280 pM, a koff (biotinylated RBD of TcsL [2]) of 0.00928 s⁻¹ and a kon (biotinylated RBD of TcsL [2]) of 2.17e+06 M⁻¹ s⁻¹. The Kd (biotinylated RBD of TcsL [3]) was 4230 pM.

B4: cspg67 (designed binder)
chain: AEELAKKLEEMAEVFKEKGDEEGAKECLKAAKIVRRSKNEEFGKWCIKKAEERLKKL
For B4, the Kd (full length TcdB) was 1950 pM, the koff (full length TcdB) was 0.00387 s⁻¹ and the kon (full length TcdB) was 1.99e+06 M⁻¹ s⁻¹. For the same binder, the “IC50 of neutralization of TcdB2 in WT Vero cells (CSPG4-dependent entry), Figure S7B; 8-step 3-fold dilution series starting at 40 nM; mean across 2 independent replicates” value (TcdB2 (TcdB 027)) was 1000 pM.

B5: fzd13 (designed binder)
chain: AEKEVQELIDKALNTPDPKVASKYIISAVYVAAKARDPSLFQSALDTAKKL
Binder B5 has a Kd [1] of 5.55 pM, a koff [1] of 0.00014 s⁻¹ and a kon [1] of 2.53e+07 M⁻¹ s⁻¹.

B6: cspg4 (designed binder)
chain: ENKLARAVVTVNKSWLATQLFVRLYRLCKAGDPRCEEVAEKLRKVLELQGVPETDIELVVEVAKG
Work on B6 yielded a Kd (full length TcdB) of 1980 pM, a koff (full length TcdB) of 0.0378 s⁻¹ and a kon (full length TcdB) of 1.91e+07 M⁻¹ s⁻¹.

B7: B4 (designed binder)
chain: TEEIIKEIKKMKEKGEKASSIIDLLKKAGYSEIAKKAELAALKSENMTEAAAEKAIEELK
For B7, the Kd (biotinylated RBD of TcsL [2]) was 56.9 pM, the koff (biotinylated RBD of TcsL [2]) was 0.000112 s⁻¹ and the kon (biotinylated RBD of TcsL [2]) was 1.98e+06 M⁻¹ s⁻¹.

B8: B4-M79 (designed binder)
chain: TEEIIKEIKKMKEKGEKASSIIDLLKKAGYSEIAKKAELAALKSENMTEAAAEKAIEELKGSQVKLEESGGGLVQAGGSLKLSCAASGSTFSSSSVGWYRQAPGQQRELVAAITSGGSTNTADSVKGRFTMSRDNAKNTVYLQMRDLKPEDTAVYYCNVAGRNWVPISRYSPGPYWGQGTQVTVSS
B8 showed a Kd (biotinylated RBD of TcsL [4]) of 9.9 pM.

B9: ss2cspg18 (designed binder)
chain: MDEKVEKLKECLEKLKEKGDIKGVIDTERAIRICERSRHKEFCEWAIEKCENRIKES
notes: also called c18; dual disulfide version of cspg18
For B9, the Kd (full length TcdB) was 865 pM, the koff (full length TcdB) was 0.00164 s⁻¹ and the kon (full length TcdB) was 1.9e+06 M⁻¹ s⁻¹.

B10: ss2cspg35 (designed binder)
chain: B9 chain with K4L, I21L, I25K, N52A
notes: also called dual disulfide version of cspg35
B10 gave a Kd (full length TcdB) of 480 pM, a koff (full length TcdB) of 8.03e-05 s⁻¹ and a kon (full length TcdB) of 167000 M⁻¹ s⁻¹.

B11: ss2cspg27 (designed binder)
chain: B9 chain with K4L, I25T, R29K, K49A, N52A
notes: also called c27; dual disulfide version of cspg27
With B11 the Kd (full length TcdB) was 507 pM, the koff (full length TcdB) was 0.000101 s⁻¹ and the kon (full length TcdB) was 199000 M⁻¹ s⁻¹.
